Measured values published in PMC3563936.

Biological target: T1, Dpo4 (Y-family DNA polymerase) (Sulfolobus solfataricus, UniProt Q97W02 1-352)
T1 sequence: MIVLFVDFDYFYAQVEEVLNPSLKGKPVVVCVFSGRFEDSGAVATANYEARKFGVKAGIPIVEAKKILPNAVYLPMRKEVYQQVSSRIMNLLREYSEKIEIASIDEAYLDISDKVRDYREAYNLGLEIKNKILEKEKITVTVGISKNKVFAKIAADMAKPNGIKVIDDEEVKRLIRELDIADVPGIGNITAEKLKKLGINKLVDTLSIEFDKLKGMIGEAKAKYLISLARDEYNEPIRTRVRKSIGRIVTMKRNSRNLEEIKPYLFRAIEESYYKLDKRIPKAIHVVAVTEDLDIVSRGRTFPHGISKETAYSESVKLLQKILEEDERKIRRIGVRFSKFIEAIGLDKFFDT
Assay: X-ray crystallography

B1: 14/18-mer primer/template DNA (dsDNA)
DNA 1: GGGGGAAGGATTCC
DNA 2: TCATGGAATCCTTCCCCC
- binding result: binds
